Measured values taken from patent US20250152663A1, “COMPOSITION FOR PREVENTION OR TREATMENT OF DRY EYE DISEASE COMPRISING HAPLN1” (HAPLNSCIENCE INC., priority 2021, published 2025).
Entries after “also recorded” stand apart in the source; their conditions may differ.

Assays:
[1] = tested on: rabbit dry eye model; test: Tear film break up time (TFBUT), benzalkonium chloride-induced dry eye disease model; assay type: in vivo, New Zealand white rabbits
Method: One drop (0.05 ml) of 0.1% benzalkonium chloride (BAC) was administered to both eyes of rabbits twice a day (9:00 and 17:00) for 14 days, and then induction of dry eye was identified by examination of eyes, and the rabbits were classified into groups.
The test substance was dropped into the groups of the rabbit model twice a day (8:30 and 16:30) (Day 15 to 30 (total of 16 days)).
Anesthesia was induced by intramuscular injection of Xylazine and Ketamine, and then one drop of Alcaine Eye Drop was administered and tear and the eye drop remaining therein were removed by using Weck-cel cellulose spear. After putting STT paper on the lower eyelid, a length of a wet region for 5 minutes was measured (STT-2). In addition, stability of the tear film was tested by measuring tear film break up time (TFBUT, measurement of time taken for the tear film to break down). Furthermore, conditions of the cornea and fluorescent staining were identified by a slit test.
In this example, a method of measuring time until black spots appeared at fluorescent stained regions after applying one drop of sodium fluorescein to eyeballs. The black spots may appear within several seconds after blinking and occurs very quickly under the conditions of dry eye disease. That is, stability of the tear film was measured by measuring the tear film break up time (TFBUT, measurement of time taken for the tear film to break down).

[2] = tested on: MUC5AC in human conjunctiva epithelial cells (HConEpiC); test: Anti-MUC5AC fluorescence staining under high osmotic pressure; assay type: cell-based
Method: First, human conjunctiva epithelial cells (HConEpiC) obtained after 4th passage of culture were seeded onto 24 wells and incubated for 24 hours, and then treated with high osmotic pressure of 450 mOsM simultaneously with the composition of the present disclosure having various concentrations (0, 5, 10, 20, 50, 100, and 200 ng/ml) of the HAPLN1 protein or Cyclosporine A (0.1 μM). After 72 hours of incubation, the cells were immobilized with 4% paraformaldehyde for 30 minutes and washed with a buffer. Subsequently, fluorescence staining was performed by using Anti-MUC5AC (DAPI labels the nuclei).

[3] = tested on: CD11 b in lacrimal glands; test: CD11 b immunofluorescence in lacrimal gland, mouse dry eye model; assay type: in vivo, C57BL/6; details: after 16 days of drug treatment
Method: (§1) In this example, expression of CD11 b was identified in lacrimal glands in order to identify in vivo anti-inflammatory effect of the HAPLN1 protein-containing composition of the present disclosure. That is, on the 2nd day after 16 days of drug treatment, eyes were enucleated and paraffin blocked. IHC-IF was performed on a section slide, and expression (green) of CD11 b was identified by using an Anti-CD11 b antibody. FIG. 13B is a graph illustrating quantified expression levels of FIG. 13A (FIG. 13B).

[4] = tested on: corneal epithelial cells; test: Detachment of corneal epithelial cells (H & E staining), mouse dry eye model; assay type: in vivo, C57BL/6; details: after 16 days of drug treatment, regardless of concentration
Method: On the 2nd day after 16 days of drug treatment, eyes were enucleated and paraffin blocked, and tissue was stained by hematoxylin and eosin (H & E) staining on a prepared slide (FIG. 9A). The number of detached corneal epithelial cells was measured and quantified (FIG. 9B).

[5] = tested on: CD45 in lacrimal glands; test: CD45 immunofluorescence in lacrimal gland, mouse dry eye model; assay type: in vivo, C57BL/6; details: after 16 days of drug treatment
Method: as §1, with “CD45” for “CD11 b”, “Anti-CD45” for “Anti-CD11 b”, “12B” for “13B”, “12A.” for “13A (FIG. 13B).”

[6] = tested on: human corneal epithelial cells; test: CCK-8 cell viability under high osmotic pressure (dry eye cell model); assay type: cell-based; details: HCEC, 450 mOsM
Method: In most dry eye diseases, tear decreases in the aqueous layer in an eyeball due to lacrimal hyposecretion or hyperevaporation of tear. In this case, osmotic pressure increases because water decreases while concentrations of proteins, lipids, carbohydrates, etc. contained in tear are constantly maintained. Based on this principle, in cellular level studies, NaCl is added to a cell culture medium to control the osmotic pressure, establish a dry eye disease model, and evaluate efficacy of a drug. Thus, in the present embodiment, by using a case with an osmotic pressure of 314 mOsM as a normal control and a case with a relatively high osmotic pressure of 450 mOsM as a dry eye disease model, effects of HAPLN1 protein on the relief of dry eye disease in human corneal epithelial cells under the high osmotic pressure conditions were verified. This is related to cell viability of human corneal epithelial cells.
In this experiments, a cell counting kit-8 (CCK-8), which allows a sensitive colorimetric assay used to measure cell viability and cytotoxicity, was used. That is, addition of WST-8, which is a highly water-soluble tetrazolium salt, to cells […] to produce an orange-colored formazan dye in the cells. Because the amount of the dye is related to the number of viable cells, a larger amount of the dye indicates more viable cells. […]

B1: hyaluronan and proteoglycan link protein 1 (HAPLN1) (protein, listed as Homo sapiens)
chain: MKSLLLLVLISICWADHLSDNYTLDHDRAIHIQAENGPHLLVEAEQAKVFSHRGGNVTLPCKFYRDPTAFGSGIHKIRIKWTKLTSDYLKEVDVFVSMGYHKKTYGGYQGRVFLKGGSDSDASLVITDLTLEDYGRYKCEVIEGLEDDTVVVALDLQGVVFPYFPRLGRYNLNFHEAQQACLDQDAVIASFDQLYDAWRGGLDWCNAGWLSDGSVQYPITKPREPCGGQNTVPGVRNYGFWDKDKSRYDVFCFTSNFNGRFYYLIHPTKLTYDEAVQACLNDGAQIAKVGQIFAAWKILGYDRCDAGWLADGSVRYPISRPRRRCSPTEAAVRFVGFPDKKHKLYGVYCFRAYN
**Q.** Which “increase of TFBUT compared with Restasis” value ([1]; after 10 days, regardless of the concentration of HAPLN1) does the source give for B1 here?
**A.** Its value is “more than by Restasis”.

**Q.** What about the “tear film break up time (TFBUT)” value ([1]; eye drop b.i.d., dry eye model less than 10 seconds) of the same molecule?
**A.** The value was “continuously increased”.

**Q.** What about the “tear film break up time (TFBUT)” value ([1]; high concentration (50 μg/ml)) of the same molecule?
**A.** Its value is at least 30 s.

**Q.** And the “numbers of cells secreting MUC5AC, compared with control” value ([2]; 450 mOsM, 10, 20, 50, 100, and 200 ng/ml, 72 hours)?
**A.** Its value is “significantly greater than that of the normal control”.

**Q.** And the “numbers of cells secreting MUC5AC, compared with Cyclosporine A” value ([2]; 450 mOsM, at some concentrations, vs Cyclosporine A 0.1 μM)?
**A.** The value was “greater than the case treated with Cyclosporine A”.

**Q.** And the “expression level of CD11 b compared with Cyclosporine A” value [3]?
**A.** The value was “reduced the expression level of CD11 b more than Cyclosporine A”.

**Q.** What about the “expression of CD11 b in lacrimal glands” value [3] of the same molecule?
**A.** Its value is “decreased”.

**Q.** What about the “number of damaged (detached) corneal epithelial cells” value [4] of the same molecule?
**A.** Its value is “decreased”.

**Q.** And the “expression level of CD45 compared with Cyclosporine A” value [5]?
**A.** The value was “reduced the expression level of CD45 more than Cyclosporine A”.

**Q.** And the “expression of CD45 in lacrimal glands” value [5]?
**A.** The value was “decreased”.

**Q.** What about the “cell viability, CCK-8 absorbances (450 nm)” value ([6]; 5 to 100 ng/ml, incubated 24 hours or 48 hours, compared with normal cell group (314 mOsM)) of the same molecule?
**A.** The value was “not less than or similar to that of a normal cell group; also recorded: increased”.

**Q.** And the “cell viability (CCK-8) compared with control drug Cyclosporin A” value ([6]; regardless of concentration, vs 0.1 to 0.5 μM Cyclosporin A)?
**A.** Its value is “higher than 0.1 to 0.5 μM of Cyclosporin A”.
